Test: yeast display, Sf9 membrane polyspecificity reagent, FACS + sequencing; frameworks hold sequencing errors
In short: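 Nanobodies from a synthetic yeast display library (Saccharomyces cerevisiae BJ5465), induced 36–48 hours with galactose, were stained 1 hour at 4 °C with 10% biotinylated, detergent-solubilized Sf9 membrane reagent, enriched on streptavidin microbeads, then FACS-sorted. Anti-HA (expression) and streptavidin (reagent binding) fluorescence set low and high (top ~1%) gates. Polyreactivity labels come from the gate of origin. Genes were colony-PCR amplified, MiSeq 2 × 250 sequenced and filtered by CDR length.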

| Sequence | polyreactivity (PSR sort gate) |
| --- | --- |
| QVQLVESGGGLLQAGGSLRLSCAASGFTIVCYAMGWYRQAPGKERELVAAISSGGSTYYADSVKGRFTISRDNAKNTVFLLMNSLKPEDTAVYYCAADREYYDEYAGYEYWGQGTQVTVSS | low polyreactivity |
| QVQLVESGGGLLQAGGSLRLSCAASGIIFHYNAMGWYRQAPWKQRELVAAITSTDNTNYADSVKGRFTISRDNAKNTVYLQMNSLIAEATAVYYCNASVGRDSAYDYWGQGTQVTVSS | low polyreactivity |
| QVQLVESGGGLLQAGGSLRLSCAASGIIYRPYAMGWYRQAPGKERELVAAITGSGVSTYYADSVKGRFTISRDNAKNTVYLQMNSLKPEDTAVYYCAKRYNRGYHRYDSWGQGTQVTVSS | low polyreactivity |
| QVQLVESGGGLLQAGGSLRLSCAASGRIFGQYAMGWYRQAPGKEREFVAGISTTGGSTYYADSVKGRFTISRDNAKNTVYLQMNSLKPEDTAVYYCAVRINWSRWYHYYTYNYWGQGTQVTGSS | high polyreactivity |
| QVQLVESGGGLLQAGGSLRLSCAASGRIFTLYDMGWYRQAPGKERELDAAISNSAGSTYYADSVKGRFTISLDNAKNTVYLQMNSLKTEDTAGYYCARSFSYWGYRSVYYWGQGTQVTVSS | high polyreactivity |
| QVQLVESGGGLLQAGGSLRLSCAASGRIFVHYVMGWYRQAPGKERELVAAINVSGGGTYYADSVKGRFTISRDNAKNTVYLQMNCLKPEDTAVFYCAAGTTQDWPFSSRSYFGHDSWGQGTQVTVSS | low polyreactivity |
| QVQLVESGGGLLQAGGSLRLSCAASGRTFYKNAMGWYRHAPRKERELVAAITSGGSTNYADSVKGRFTISRDNAKNSVYLQMNSLKSEDTAVSACAAQLFPYYRSRYSYINNYDYSGQGTQVTVSS | high polyreactivity |
| QVQLVESGGGLLQAGGSLRLSCAASGRTLVSYAMGWYRQAPGKERELVATISWSGGSTYYADSVKGRFTISRDTAKNTVYLQIYSLKPEDTAGYDCNRSLTGYDELGYPVPYTYDYWGQGTQVTVSS | low polyreactivity |
| QVQLVESGGGLLQAGGSLRLSCAASGSIFERNAIGWYRQAPGKERELVAVITRSGGSTYYADSVKGRFTISRDNAKNTVYLQMNSLKREDTAVYYCNARTAYFYGLDYWGQGTQVTVSS | high polyreactivity |
| QVQLVESGGGLLQAGGSLRLSCAASGSIFLYYAMGWYRQAPGKERELVAGISRGGGTTYYADSVKGRFTISRDNAKNTVYLQMNSLKPEDTAFYYCATVFWRSKHEYWGQGTQVTVSW | high polyreactivity |
| QVQLVESGGGLLQAGGSLRLSCAASGSISAQYALGWYRQAPGKERELVAAIDFSGGSTYYADSVKGRFTISRDNAKNTVYLQRNSLKPEDTAVYYCAARGDGDPSTDITLVEYDYWGQGTQVTVSS | low polyreactivity |
| QVQLVESGGGLLQAGGSLRLSCAASGSTFDTYDMGWYRQAPGKERELVAARNSGGDTNYADSVKGRFTISRDNAKNTVYLQMNSLKPEDTAVYYCAVVTYSYPNWYGYWGPGTQVTVSS | high polyreactivity |
| QVQLVESGGGLLQAGGSLRLSCAATGITFDRYAMGWYRQAPGKERELVAAITSGGRTYYADSVKGRFTISRDNAKNTVYLQMNSLKPEDTAVYYCNATRGQYVGRYYYWGQGTQVTVSS | high polyreactivity |
| QVQLVESGGGLLQAGGSLRLSCADSGYTFRAYALGWYRQAPGKERELVAAISRGGSTNYADSVKGRFTISRDNAKNTVYLQMYSLKPEDTAVYYCNTAYIVWYSSSYGAYYSGAFDYWGQGTLVTVSS | high polyreactivity |
| QVQLVESGGGLLQAGGSLRLSCSASGSTFDDYAMGWYRQAPGKERELVAAIRWSGGSTYYADSVKGRFTISRDNAKNTVYLQMKSLKPEDTAVYYCNADGRRGRYDYWGQGTQVTVSS | low polyreactivity |
| QVQLVESGGGLLQAGGSLRLSFAASGSIVGPYGRGWYRQAPGKERELVAAISTVGGSTYYADSVKGRFTISRDNAKNTVYLQMNSLTPEDTAGYYCAKVPRYIELSRQATHSYDYWGHGTQVTVSS | low polyreactivity |
| QVQLVESGGGLLQAGGSLRLSSAASGIIFYAYAMGWYRQAPGKERELVAAITFSAVSTYYADSVKGRFTISRDNAKNTVYLQMNCLKPEDTAVYYCAAEAYKHGVWDYDYWGQGTQVTVSA | low polyreactivity |
| QVQLVESGGGLLQAGRSLRLSCAASGSTFRAYTMGWYRQAPGIERELVAAINSGGSTYYADSVKGRFTISRDNAKNTVYLQMNSLKAEDTAVYYCNRRFYRAVKYGYWGQGTQVTVSS | low polyreactivity |
| QVQLVESGGGLLQARGSLRLTCAASGIIFIKYAMGWYRQPPGKDRELVASSTSGGSTHYADSVKGRFTISRDNAKNTVYLQMNSLIPEETSVYYCNADILRHDAYFKDRYQAGSYWGLGTQVTVSS | low polyreactivity |
| QVQLVESGGGLVEAGGSLRLSCAASGINFWVNAMGWYRQAPGKERELVAAIRSDGSTKYADSVKGRFSSSRDNAKNTVYLQMNSLKPEDTAIYYCAKRDFSYPWLRDFYYWGQGTQVTVSS | low polyreactivity |
| QVQLVESGGGLVEAGGSLRLSCAASGRIFKYYAMGWYRQAPGKERELVAAISRGGSTYYADSVKGRFTISRDNAKNTVYLQMNSLKPEDTAVYFCAAVNGWRRVLRFDYWGQGTQVTVSS | high polyreactivity |
| QVQLVESGGGLVEAGGSLRLSCAASGRISQSNAMGWYRQAPGKESELVAAISWRGGSTYYADSVKGRFTISRDNAKNTVYLEMNSLKPEDTAVYYCGAKSWYAFYYRHPYDYWGQGTQVTVSS | high polyreactivity |

| Sequence | polyreactivity (PSR sort gate) |
| --- | --- |
| QVQLVESGGGLVEAGGSLRLSCAASGRTFFKYTMGWYRQAPGKERELVSAITGSGASTYYADSVKGRFTISRDNAKNTVYLQMNSLKPEDTAVYYCAAVLTVKKGDKYGYWGQGTQVTVSS | high polyreactivity |
| QVQLVESGGGLVEAGGSLRLSCAASGSILIYVMGWYRQAPGKERDLFASITFSGGSTYYADSVKGRFTISRDNAKNSVYLQMYRLKPEVTAVYYCAAVPLWDYKFFYYLLYDYWGQGTQVTVSS | low polyreactivity |
| QVQLVESGGGLVEAGGSLRLSCAASGSTFRRYAMGWYRQAPVKERELVAAISTRGGSTYYADSVKGRFTISRDNAKNTVYLQMNSLKPEDTEVYYCAADPYYTLGYYYWGQGTQVTVSS | high polyreactivity |
| QVQLVESGGGLVEAGGSLRLSCAASGSTINYNAMGWYRQAPGKERELVAAIDSGVSTNYADSVNGRFTISRDNAKNTVYLQMNSLKPEDTAVYYCAVGGAGSDDYWGQRTQVTVSS | low polyreactivity |
| QVQLVESGGGLVEAGGSLSLSCAASGSTFYKYSMGLYRQAPGKESELVAAITGSGVSTYYADSVKGRFTMSRDNAKNTVYLQMNSLKPDDTAVYYCNAESRSRPYTSSYDYWGQGTQVTVSS | high polyreactivity |
| QVQLVESGGGLVEPGGSLRLSFASSGRTYQFYVMGWSRQAPGKERELVASIRSGGSTNYADSVKGRFTISRDNAKNTVYLLMNSLKPEDTALYYCAARVASPYYRYVYWGKGTQVTVSS | low polyreactivity |
| QVQLVESGGGLVHAGCSLRLSCDASGRIFKNYAMGWYRQAPGKERELVAAISWSGGRTYYADSVKGRFTISRDYAKNTVYLQMHRLKPEDTEVYYCATAARRGPTSIEPFGYGSWGQGTQVTVSS | high polyreactivity |
| QVQLVESGGGLVHAGGCLRLSFAASGFIFVVNPMGWYRPAPGKERELVAAINTSRGSTSYADSVKGRFTISRDNAKNTVYLQMNSVKPEDNAVYYCARDVWEKYRQSWGYVPLQGYDYCGQGTQVTVSS | low polyreactivity |
| QVQLVESGGGLVHAGGPLRLSCAASGGIFFSYAMGWYRQAPGKERELVAAIRTNGGTTYYADSVKGRFTISRDNAKNTVYLHMNSLKPEETAVYDCAALPGGYYDRGEYDYWGQGTQVTVSS | low polyreactivity |
| QVQLVESGGGLVHAGGRLRLSCAASGRTFVSYVMGWYRQAPGKERELVAAISGNGGRTYYADSVKGRFTISRDNAKNTVYLQMNSLKPEDTAVYYCAAELFVSYFDVLMYYWGQGTQVTVSS | high polyreactivity |
| QVQLVESGGGLVHAGGSIRLSCAASGSIFRLYAMGWYRQAPGKERELVATISQRGGRTYYADSVKGRFTISRDNAKNTVYLQMNILKPEVTAVYYCNADHYYPWLDYWGLGTQVTVSS | high polyreactivity |
| QVQLVESGGGLVHAGGSLRISCAASGRTFWVYAMGWYRKAPGKERELVAAISWSGGRTYYADSVKGRFTISRDNAKNTVYLQMNSLKPEDTAVYYCAATTGVRSRRYYYWGQGTQVTVSS | low polyreactivity |
| QVQLVESGGGLVHAGGSLRLSCAAAGFTFTYYTMGWYRKAPGKERELVAAITENGGSTYYADSVKWRFTISRDNAKNTVYLQMKSLKPEDPAVYYCNARVWDYGGHGYDYWGQGTQVTVSS | low polyreactivity |
| QVQLVESGGGLVHAGGSLRLSCAASGFIFFSNAMGWYRQAPGKERELVATISTSSGSTYADSVKGRFTNSRDNAKNTVYLQMNSLKPEDTAVYYCAADTQGYDYDYWGQGTQVTVSS | low polyreactivity |
| QVQLVESGGGLVHAGGSLRLSCAASGFIFPYYAMGWYRQAPGKERELVAAITSGGSTNYADSVKGRFTISRDNAKNTVYLQMNSLKPEDTAVYYCAKRLKRWSVYGRYDYWGQGTQVTVSS | high polyreactivity |
| QVQLVESGGGLVHAGGSLRLSCAASGFIFYYYTMGWYRQAPGKEREFVAAISSSGTITYYADSVKGRFTISRDNAKNTVYLQMNSLKPEDTAVYYCNAELYYPYEFWRFSGYDYWGQGTQVTVSS | low polyreactivity |
| QVQLVESGGGLVHAGGSLRLSCAASGFSFNTYAMGWYRQAPGKERELVADISSGGSTNYADSVKGRFTISRDNAKNTVFLQMNSLKPEDTAVYYCSADYYFLDWYDYWGQGTQVSVSS | low polyreactivity |
| QVQLVESGGGLVHAGGSLRLSCAASGFTFYYNDMGWYRQAPGKERELVAAIRWSGGNTYYADSVKGRFKISRDNAKNTVYLQMNSLKPEDTAVYYCSAGTQWYSQVYIYYYWGQGTQVTVSS | low polyreactivity |
| QVQLVESGGGLVHAGGSLRLSCAASGGIYWYYAMGWYRQAPGKERELVAAISITDGSTYYADSVKGRFTISRDKAKNTVYLQMNSLKPEDTAVYYCAAEEEEYIYDYWGQGTQVTVSS | high polyreactivity |
| QVQLVESGGGLVHAGGSLRLSCAASGIIFVLHAMGWYRQAPGQERELVASISGIGGSTYYADSEKGRFTISRDNAKNTVYLQMNSLKPEDTAVYYCAARGWLSRYGYWGHGTQVTVSS | high polyreactivity |
| QVQLVESGGGLVHAGGSLRLSCAASGIIFYLYAMGWYRQAPGKERELVAAISRRGVSTYYADSVKGRFTISRDNAKNTVYLQMNSLKTEDTAVYYCAAAGFGYTGEEYWGQGTQVTVSS | high polyreactivity |
